± gives the uncertainty stated by the source.
B1: Intersectin-1, residues 909 to 971; numbered along this chain, Q15811 (parent)
chain: QGEKVEGLQAQALYPWRAKKDNHLNFNKNDVITVLEQQDMWWFGEVQGQKGWFPKSYVKLISG

Variants of: B1
Assay: abundance fitness (aPCA) (normalised: wild type 0, dead -1); higher = more abundant; growth selection in yeast, the domain comes from the species named
Conditions: Homo sapiens

Variant | abundance fitness
K55N | -0.054 ± 0.26
F53E | -0.858 ± 0.46
F53S | -0.932 ± 0.18
I61K | -0.079 ± 0.16
I61L | 0.002 ± 0.078
I61V | 0.095 ± 0.085
I61T | -0.137 ± 0.26
I61A | -0.073 ± 0.097
K19Q | 0.069 ± 0.082
K19V | 0.021 ± 0.043
G44V | -1.1 ± 0.41
V5W | -0.106 ± 0.22
V5M | -0.073 ± 0.49
A18D | -0.109 ± 0.072
A18P | -0.034 ± 0.1
A18K | -0.059 ± 0.15
E36L | -0.094 ± 0.17
G48Q | -0.38 ± 0.2
G48K | -0.053 ± 0.18
G48F | -0.522 ± 0.36
G48T | -0.526 ± 0.22
Q11S | -0.066 ± 0.086
Q11H | -0.131 ± 0.29
D21G | -0.068 ± 0.042

Variant | abundance fitness
D21Q | 0.145 ± 0.17
D21E | -0.096 ± 0.12
K59I | -0.227 ± 0.21
K59W | -0.747 ± 0.24
A10V | 0.095 ± 0.093
A10L | -0.272 ± 0.15
A10E | -0.821 ± 0.29
A10Y | 0.003 ± 0.24
F43M | -0.107 ± 0.17
F43W | -0.061 ± 0.14
F43V | -0.923 ± 0.18
F43D | -0.997 ± 0.34
F43H | 0.168 ± 0.47
Q47A | 0.009 ± 0.084
Q47C | -0.332 ± 0.14
Q47T | -0.014 ± 0.14
L13R | -0.126 ± 0.11
L13Q | -0.2 ± 0.28
L13A | -0.271 ± 0.22
L13N | -0.024 ± 0.42
L13I | -0.393 ± 0.46
L60F | -0.536 ± 0.17
L60Q | 0.049 ± 0.12
L60P | -0.152 ± 0.12

Variant | abundance fitness
L60V | -0.06 ± 0.1
L60I | -0.258 ± 0.25
L24I | -0.359 ± 0.27
L24Q | -0.694 ± 0.27
L24T | -0.694 ± 0.15
L24F | -0.466 ± 0.27
L24S | -0.867 ± 0.14
D39S | -0.127 ± 0.18
D39P | -0.297 ± 0.15
E45A | -0.245 ± 0.12
E45R | -0.034 ± 0.12
E45K | -0.222 ± 0.21
E45C | -0.117 ± 0.3
E45F | -0.055 ± 0.3
Y14S | -0.233 ± 0.11
Y14I | -0.058 ± 0.16
Y14G | -0.159 ± 0.072
Y14E | 0.023 ± 0.12
Y14F | -0.725 ± 0.44
V58R | -1.04 ± 0.34
V58S | -0.816 ± 0.23
V58D | -0.793 ± 0.47
H23M | -0.231 ± 0.16
H23V | -0.172 ± 0.1

Variant | abundance fitness
H23R | -0.254 ± 0.11
P54C | -0.765 ± 0.34
P54V | -0.499 ± 0.12
T33D | 0.086 ± 0.15
T33W | -0.175 ± 0.072
F26L | -0.078 ± 0.11
F26A | -0.767 ± 0.23
F26V | -0.335 ± 0.12
N27S | -0.408 ± 0.43
N27E | 0.054 ± 0.45
N27A | -0.114 ± 0.31
Q9I | -0.172 ± 0.21
Q9V | -0.093 ± 0.095
Q9N | 0.012 ± 0.28
P15Y | -0.269 ± 0.22
P15T | -0.059 ± 0.17
P15G | 0.115 ± 0.071
P15K | -0.14 ± 0.23
P15A | 0.017 ± 0.11
D30K | -0.783 ± 0.086
Y57W | -0.258 ± 0.36
Y57Q | -0.14 ± 0.12
W42S | -0.667 ± 0.12
W42P | -0.658 ± 0.14

Variant | abundance fitness
W42V | -0.411 ± 0.07
W42M | -0.192 ± 0.13
W42R | -0.767 ± 0.093
W42G | -0.734 ± 0.086
G63T | 0.032 ± 0.15
Q38F | -0.423 ± 0.24
Q38W | -0.286 ± 0.15
Q38S | -0.148 ± 0.16
Q38P | -0.313 ± 0.16
V46M | -0.048 ± 0.11
V46I | -0.11 ± 0.11
V46R | -0.1 ± 0.082
V46N | -0.309 ± 0.3
N22A | -0.118 ± 0.11
N22Q | 0.015 ± 0.15
N22H | -0.301 ± 0.25
N22K | 0.022 ± 0.12
Q1M | -0.208 ± 0.31
Q1V | 0.158 ± 0.4
Q1T | -0.111 ± 0.28
M40T | -0.115 ± 0.13
M40Y | -0.344 ± 0.26
M40P | 0.025 ± 0.11
M40A | -0.083 ± 0.09

Variant | abundance fitness
M40C | 0.084 ± 0.17
G51C | -0.709 ± 0.32
N29M | -0.034 ± 0.12
N29G | -0.031 ± 0.067
N29C | -0.185 ± 0.12
W41S | -0.274 ± 0.085
W41K | -0.427 ± 0.31
W41E | -0.59 ± 0.17
W41T | -0.659 ± 0.23
W41V | -0.319 ± 0.14
W41G | -0.78 ± 0.28
W41N | -0.154 ± 0.15
Q37I | -0.286 ± 0.3
Q37E | -0.159 ± 0.29
I32E | -1.03 ± 0.3
I32T | -0.97 ± 0.18
Q49C | 0.046 ± 0.16
Q49H | 0.045 ± 0.22
V31S | -0.224 ± 0.027
R17A | -0.19 ± 0.09
L35T | -0.327 ± 0.45
L35Q | -0.058 ± 0.24
E3C | -0.153 ± 0.29
E3N | 0.02 ± 0.17

Variant | abundance fitness
E3D | -0.021 ± 0.26
E3G | -0.165 ± 0.1
G2S | -0.018 ± 0.085
G2L | -0.386 ± 0.18
S56T | -0.016 ± 0.16
S56W | -0.393 ± 0.17
S56F | -0.239 ± 0.19
N25V | -0.207 ± 0.076
N25A | -0.064 ± 0.1
N25K | 0.115 ± 0.31
K4L | -0.248 ± 0.13
K4N | -0.026 ± 0.17
E6I | -0.29 ± 0.23
L8Q | 0.05 ± 0.13
L8R | -0.087 ± 0.072
L8M | 0.094 ± 0.13
L8A | 0.043 ± 0.092
L8T | -0.039 ± 0.18
L8Y | 0.112 ± 0.3
L8I | -0.136 ± 0.31
L8K | -0.136 ± 0.15
W52I | -0.458 ± 0.25
W52T | -0.89 ± 0.28

— the Human Domainome abundance scans (Beltran et al. 2025)
